Data from a protein production outcome set (Wang et al. 2014).

Assay: label from the status in PepcDB records
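Further: failed if final PepcDB status was selected cloned or expressed and not failed if soluble or beyond.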

Sequence | protein production
MSSSLDLAPELSVASTHPASTLAGHQPDLVLSPRLHNRDLAPTRMEGRRWGGYSIFALWTNDVHNIANYSFAMGLFALGLGGWQILLSLAIGAALVYFFMNLSGYMGQKTGVPFPVISRIAFGIHGAQIPALIRAVIAIAWFGIQTYLASVVLRVLLTAVWPQIAAYDHDSILGLSSLGWVCFVSIWLVQLVILAYGMEMVRRYEAFAGPVILLTVAALAVFMYFKADARIAWSVATPLTGYEMWRNIFAGGALWLAIYGTLVLNFCDFARSSPCRKTIRVGNFWGLPVNILVFAVITVVLCGAQFQINGQIIDSPTQIVAAIPSTPFLVLGCLAFLIVTVAVNIMANFVAPAFVLSNLAPRHLNFRRAGLISATLAVLILPWNLYNSPLVIVYFLSGLGALLGPLYGVIMSDYWLLRKGCINVPELYTEHPAGAYHYSKGINLRAVAAFVPAALLAIVLALVPNFQGIAPFSWLIGAGIAAALYLLIAPRNRHYHDVSGECIAVDHSGH | failed
MQILQTFVQSIQGVMTIIVMIAVGYLLARWGWFNESATKLIARLVTQIALPAYMIATITKQFTAHKLLSTLPGLRFPVLNMAILFGISFGVMRALNIKKSHRGLFASMFLNSNTVFIGLPVNQALFGNSALPYVLVYYMANTTIFWTLGVYLIQRDGTGTAKFDLKQTLTKIFSPPLLGFMIGVLLVLGNIHVPKFLMDDFSYIGGLTIPLSMIFIGISMANAGLSSMRFDRDSLGILLGRFILAPVLMTLMLIPMSIPLEMKQVFILQSAMPVMTNAPVVSKLYGADADYAAVMVTETTLLSLIVIPILMVIVQANFIR | failed
MSPARARLTAPIVLLMSVATGLAVASNYYAQPLLHTIGAEFALTTATAGAIVTVAQLSYAVGLILLVPLGDLYERRTLIALMTALSAVGLLLSAFSPGIGWLMLGTAVTGLLSVVAQVLVPFAATLAEPHERGKVVGAVMSGLLLGILLARTIAGALADLGSWRTVYWVAAILMLLMSMALWRVLPRSVNPTRLSYPRLLASIVQLYAQEPLLRARSVLGALLFAAFSMLWTPLTFLLSGPNYGYSNTTIGLFGLAGAIGAYGANRFGRLNDRGQGNRSTRQGLLLLASWPLLAWGAHHVAPLLAGVLALDLAIQAVHVTNQSAIYRLRPEARSRLTAGYMTSYFLGGAAGSLLSAWIYAHAGWLGVTAAGALTSLAALLYGCLARSARIPETTPAPAIA | failed
LTAIEARVIGCLIEKEVTTPDQYPLSLNALTNASNQKSNREPVMALSESDVLDAVDALIERRLVSDESAFNSRVSKYQHRFCNTEFGDLKLSEQEKGIICCMLLRGAQTPGEIRTRTNRLATFHDVKEVEAVLEHLASEEKGPLVVKLPREAGKRESRYMHLFCGEVDVSAMAAAVPAT | failed
QKIEKQYDADLEQILIQWITTQCRKDVGRPQPGRENFQNWLKDGTVLCELINALYPEGQAPVKKIQASTMAFKQMEQISQFLQAAERYGINTTDIFQTVDLWEGKNMACVQRTLMNLGGLAVARDDGLFSGDPNWFPKKSKE | not failed
KKISSTAVIELALDLATSLNTKDRFDRLLDTVRKTITCDAVALLSYHGDVLKPIALQGLSRDTLGRRFYVEEHPRFLALCQSKSPIRFAADSPLPDPYDGLLIDREGDLPVHSCMGLPLYYDDKLLGLLTIDSLTPHDFEDIDVRMLEVISAIAAATLNTAFLLDQLESRADHSQRVVAELTEEAWKRDGGE | failed
MTQHPFISRVAVRNYKSIGYCDVNLRPLTYLVGHNGAGKSNFMDALHFVCDALSYSLDSALNERGGINEVRRRSGGHPTHFALRVEFVMQSGQAGRYGFVIGALKNGGYEVQREECVVAGIGKGPFFRIEKGKLRDSSETTFPSVTADRLALVAASGLTAFRPVFDALTAMGFYNLNPKLMRELQKPQDGRLLRPAGENIASVIGHLEKVAPAQMALIQEYLHSVAPMVHGVERKPIGPMETLEFRQDMAGSKHPWRFLAQNMSDGTLRALGVLSALLQGNVDYSPTLIGIEEPETALHPAASAALREALVRASETTQVLVTSHSPDLLDDHSIDADAVLAVVSEAGETKVAPLDEGSRQVMRDHLFSAGELLRMNQLAPDRASLEQQDKAASGDLFGETESVLEHHHHHH | not failed
MRFAVLGSGSQGNGTLIASGDTFILVDCGFSLRETERRLALLGVSAAQLSAVLVTHEHADHVHGVGLLSRRYNVPVYLSQGTLRGMRKPVEVAGFLACGQSLHIGSLEVTAARVEHDAYEPLQYVVSDGKRRFGMLTDLGSYDALLLERYQGLDALLIEANHCRDLLARGHYPAFLKQRVGGMQGHLNNHQAARLVHELGWNNLQHLVLAHLSSKNNLPHLARQCFVDTLGCDPDWLQVANQEHGLDWREIALEHHHHHH | not failed
MTDEDSEANALADPDNPPLSAEQLASAPRMPRIKIIRRALKLTQEEFSARYHIPLGTLRDWEQGRSEPDQPARAYLKIIAVDPEGTAAALRKGAT | not failed
MTDNRPCRKDLLDWINVVSFAVDDVKLFLDTHPCNKEAMEFFDEFKKQRVQALKEYAKYYGPLTLDTASTCTERWNWINEPWPWQEGGCLEHHHHHH | failed
TSLEEITKAIMADSQNKVFTEKNIEPLFAAPKTARINIVGQAPGIKAQESRLYWNDKSGDRLREWMGVDYDTFYHSGYFAVIPMDFYYPGKGKSGDLPPRKGFAQKWHQPILDLLPDIQLTILIGNYAQKYYLHQKSSVKLTDTVAHYKKYLPDYFPLVHPSPRNQIWMSRHPWFEAQVVPDLKKIIQQII | not failed
SSAEAGGGIRKRHRTKFTAEQKERMLALAERIGWRIQRQDDEVIQRFCQETGVPRQVLKVWLHNNKH | not failed
MSRPDDIDVRPIAEAETADWIRALNTGFLRSPEVSEREVADRSSYLVPARTLGAFDNGRCVATFRSFPQELTAVGGASVPADAISNVTVTATHRRRGLLTRMMAQDLAAAKERGDVVATLIAAEYPIYGRYGFGAATHSTEWTIDVPRTGLDPRWSGPGDGGRIDLVDGEDVRKAGPELHERLRRTQPGAVSRDERWWQVHTGVVRLDRSPWTEPFYAVYRSASGEVEGLVSYECDDHWGDAKQPQNTAKVNWLIATTPAAERALWHYLCSIDWITKVRTGWRAPDDLLPHFLPDPRAARVTTHADWLWVRILDVVRALEARTYDGSGTLVLDVVDRHGLAGGRYRLTVGPDGAVCEPTTRDAGLTLDVGELAALWLGDASAVRLAALGRVREQQEGAASVADALLRTSGRPWCPDMF | not failed
MLDANKLQQAVDQAYTQFHSLNGGQNADYIPFLANVPGQLAAVAIVTCDGNVYSAGDSDYRFALESISKVCTLALALEDVGPQAVQDKIGADPTGLPFNSVIALELHGGKPLSPLVNAGAIATTSLINAENVEQRWQRILHIQQQLAGEQVALSDEVNQSEQTTNFHNRAIAWLLYSAGYLYCDAMEACDVYTRQCSTLLNTIELATLGATLAAGGVNPLTHKRVLQADNVPYILAEMMMEGLYGRSGDWAYRVGLPGKSGVGGGILAVVPGVMGIAAFSPPLDEDGNSVRGQKMVASVAKQLGYNVFKG | not failed
MRWDVVAWAVLALLLIAAETLAPGAFLLWMGIAAAAVCVLVLAVPGTSVLLQIVAFVVLSFVAIQVYRTWFRGKGRQSDRPLLNRRAEQLIGRSVLLDQAIVDGRGRAKVDDAFWVVSGPDLPAGALVRIVAVDGMTLQVQPNT | failed
MSTNEITKRLPNLTSRRALLLYSLPVLVAIGVSHSLKESSLTKTIALNLPESQVVERILDATTAEVVTPPNFEYQIQAGDNLSTIFSQLGFGYSSLMKVMETDLNYLALDTLKPGNTLRFWRNDATGELEKMELQFSIADKVVYQLNSDGGYDFTDISIPGVWRQEPLVGVIQGSFSSSANRLGLSSAEISQVVSLLKEQVNFGRDLRAGDRFEVVRRSQTINGVSTGKNEIEAIKIYNRGREITAYLHTDGQFYNAKGESLQRAFQRYPVSRSWRISSGFNPNRLHPVTGRVAP | failed
MASPLYPSVLNNPLSSIVVTRDEFNAFHTIDRTLFSRLVFNLNRDVDQSFLAMCFLLFLEQSSYARDIIAYLVSLPNAFVDAVANEIGVCINLLYNVEFASTFFAADNDDNSMIPLLLRITGGKFTLRLINQQRKNFCAGVTKSWTDVCTRAFSDLCETAHRINREKQLALEREKFIEDMKKLRLSLQQEKSNRLSVQQVKIASPPPPRPHPPVEDETEKALREKETMEVKEKEGVLAADDRTVFLTFSKGYPISEAEVRVYFTRRFGEVIEAVEMQEVEANEQPLFAKMVMKLQCASMMDEIVSARFRNKFTIDGKHVWARKYVRKNPYPASSSTHF | failed
MDCKKVIADYWNLRSSTYTNGENGFDAEERIIWRRMLENFLPPGQRLKVLDVGTGPGFLALLFAEMGHEVTAVDISMGMLEKARNNAKTLGVKVDLFHGDAEKLPFEDCYFDLVVNKYLLWTLPQPEIAVQEWMRVLKPGGRVFAIDGNWFNPRPDKKVKRWITGVVNPDMNKNPSRSFFNEFYGPIRKALPLYEDISPENVSVVFSKMGFENTAVNPLQEAQKFKKSKLPFIQRFLRDTPIFLITGQKATE | failed
MTIEKKKNKIIFTRTFSAPINKVFDAYTKRELFEQWFHPQDASVTVYDFNATKGGNAFYAIQAPQMTSYTIAEYLQVDAPYYIEYLDYFATSKGEKDTSMPGMHITLNFEEVKGKTTVTSTSTFPTESAAQQAIDMGVETGMNSTLNQLEKLLNQKLEHHHHHH | not failed
MSKRDYYQVLGVPRTASEDDLKKAYRRCAMKYHPDRNPGDAAAEAAFKECKEAYEVLADTKKRKLYDTHGHAAFEHGVGSGNTPDMNDIFGDIFGNIFGGARASRRGADVGYMVELDLEEAVAGVERQIQIPTLVECTHCHGSGSEDGHVETCGTCRGSGQVRIQRGIFAMQQTCPHCGGRGVIIRNPCKVCNGAGRVEDHKTLSVKIPAGVDNGDRIRLSGEGEQGPDGVPPGDLYVEVRVREHPIFQRDGDDLHCEVPVRISQAALGDIVRVATLDGEAEIRIPAETQSGKLFRLRGKGVRSVRSRTEGDLYCRIVVETPVNLTAEQRKLLEQFEMTFAGEDARKHSPKSATFLDGVKSFWDRMTS | failed
MNTSFIKTLMTTNAGFAALALRIPTAIIFIAHGAQKLFGSFGGYGLEGTGQWMASIGLEPGYQLALLAGSAEFFGGIALLIGLLVRPAALMLSVTMVVAIFSVHFANGLFMTNNGYEFALALLAVSFSLMFSGAGKLSLDNLLAEKLA | failed
GLEVTVWNRSAAACEPLVALGAARAEEVGELFGLDVVISMLADDQAIRGVLLDSGALERARPGLIHLSMSTLSLDCVEALDQAHQRQGLAFVAAPVFGRTDVAEAGKLNIVVGGPEEAIEQVKALLEIMGQKTWFFGKDPRGAMAVKISGNFMIASAIESMGESVALVKRLGVEPGRFMELMSSTLFDAPVYRNYGPQIVEQRFTPARFRLVLGLKDVDLALSAGKRHNVPLPLASLLHDVLLEAIAHGDGESDWTALAKVALSRSGQI | failed
